Consider ten molecules from patent US20200207841A1 (MIT, published 2020).

As usually defined, the Kd is the concentration at which binding is half-saturated. Lower therefore signals a tighter complex. What is called koff is the first-order rate constant of dissociation. The kon is a measure of how fast the partners come together.

Read-outs that look alike come from different tables or passages of the source.

For assay [1], the target named is T1, EDIII-DV4 (Dengue virus serotype 4 (DV4), UniProt P09866 580-672).
T1 construct: also called EDIII of DV4; DV4 EDIII
As to the kind of experiment: scFv displayed on yeast (YSD), soluble tagged EDIII-DV4 titrated, read by FACS. In general terms: In flow cytometry, cells or beads pass a laser one at a time.

Assay [2] concerns the target T2, EDIII-DV3 (Dengue virus serotype 3 (DV3), UniProt Q6YMS3 579-671).
T2 construct: also called EDIII of DV3; EDIII-DVIII
Kind of assay: competition ELISA; affinity relative to 4E5A. A general note: An ELISA detects its analyte on a solid surface through an enzyme-linked reagent.

Assay [3] addresses T1, EDIII-DV4. Kind of assay: competition ELISA; affinity relative to 4E5A.
Assay [4] concerns the target T3, EDIII-DV1 (Dengue virus serotype 1 (DV1), UniProt P17763 581-673).
T3 construct: also called EDIII of DV1; EDIII-DVI
Kind of assay: competition ELISA; affinity relative to 4E5A.

Assay [5] has as its target T2, EDIII-DV3.
For assay [6], the target named is T1, EDIII-DV4.
Assay [7] has as its target T3, EDIII-DV1.
Assay [8] concerns the target T3, EDIII-DV1. This is another data set of the same source.
Assay [9] deals with T4, EDIII-DV2 (Dengue virus serotype 2 (DV2), UniProt P14337 581-673).
T4 construct: also called EDIII of DV2; EDIII-DVII

Assay [10] concerns the target T2, EDIII-DV3. This is another data set of the same source.
Assay [11] has as its target T4, EDIII-DV2. The source holds these as a separate data set.
In assay [12] the target is T1, EDIII-DV4. The source holds these as a separate data set.
In assay [13] the target is T1, EDIII-DV4. As to the kind of experiment: calculated from KD, relative to 4E11 WT.
In assay [14] the target is T1, EDIII-DV4. Kind of assay: calculated from KD, ΔG = RTln(KD) at 25° C.
Assay [15] concerns the target T1, EDIII-DV4. This is another data set of the same source.

B1: 4E5A single chain Fv on yeast (scFv, V domains shown)
VH: VKLLEQSGAELVKPGASVRLSCTASGFNIKDTYMSWVKQRPEQGLEWIGRIDPENGDTKYDPKFQGKATITADTSSNTAYLHLSSLTSGDTAVYYCSRGWEGFAYWGQGTLVTVSA
VL: ELVMTQTPASLAVSLGQRATISCRASENVDKYGNSFMHWYQQKAGQPPKLLIYRASELQWGIPARFSGSGSRTDFTLTINPVEADDVATYFCQRSNEVPWTFGGGTKLEIKR
notes: also called 4E5A scFv
As to B1, the dissociation constant Kd with EDIII-DV4 [1] is 650 nM.

B2: VH_G27P (antibody, V domains shown)
VH: VKLLEQSGAELVKPGASVRLSCTASPFNIKDTYMSWVKQRPEQGLEWIGRIDPENGDTKYDPKFQGKATITADTSSNTAYLHLSSLTSGDTAVYYCSRGWEGFAYWGQGTLVTVSA
VL: ELVMTQTPASLAVSLGQRATISCRASENVDKYGNSFMHWYQQKAGQPPKLLIYRASELQWGIPARFSGSGSRTDFTLTINPVEADDVATYFCQRSNEVPWTFGGGTKLEIK
notes: also called 4E5-G27P; copies: 2 + 2
On to B2, for which the “REL AFFINITY” value worked out at 0.73 with EDIII-DV3 [2], 0.06 with EDIII-DV4 [3] and 0.08 in the assay with EDIII-DV1 [4]. In addition, the equilibrium dissociation constant (Kd) came to 33.1 nM with EDIII-DV3 [5]; 1970 nM with EDIII-DV4 [6]; 4.58 nM with EDIII-DV1 [7]; 2.76 nM with EDIII-DV1 [8]; 0.265 nM in the assay with EDIII-DV2 [9]; 4.52 nM with EDIII-DV3 [10]. Further, the figures for the koff with EDIII-DV1 [8], in the assay with EDIII-DV2 [9] and with EDIII-DV3 [10] were 0.00841 s⁻¹, 0.000527 s⁻¹ and 0.0133 s⁻¹, respectively. Besides, the figures for the kon in the assay with EDIII-DV1 [8], with EDIII-DV2 [9] and in the assay with EDIII-DV3 [10] were 3.05e+06 M⁻¹ s⁻¹, 1.99e+06 M⁻¹ s⁻¹ and 2.95e+06 M⁻¹ s⁻¹, respectively.

B3: VH_S26_del (antibody, V domains shown)
VH: VKLLEQSGAELVKPGASVRLSCTAGFNIKDTYMSWVKQRPEQGLEWIGRIDPENGDTKYDPKFQGKATITADTSSNTAYLHLSSLTSGDTAVYYCSRGWEGFAYWGQGTLVTVSA
VL: ELVMTQTPASLAVSLGQRATISCRASENVDKYGNSFMHWYQQKAGQPPKLLIYRASELQWGIPARFSGSGSRTDFTLTINPVEADDVATYFCQRSNEVPWTFGGGTKLEIKR
In the case of B3, the “REL AFFINITY” value is 4.42 with EDIII-DV3 [2] and > 1.23 with EDIII-DV1 [4]. The dissociation constant (Kd) with EDIII-DV3 [5] was 5.47 nM; in the assay with EDIII-DV1 [7], < 0.3 nM; in the assay with EDIII-DV2 [11], < 0.3 nM; with EDIII-DV1 [8], 0.118 nM; with EDIII-DV2 [9], 0.104 nM; in the assay with EDIII-DV3 [10], 2.6 nM.

B4: VH_G27A (antibody, V domains shown)
VH: VKLLEQSGAELVKPGASVRLSCTASAFNIKDTYMSWVKQRPEQGLEWIGRIDPENGDTKYDPKFQGKATITADTSSNTAYLHLSSLTSGDTAVYYCSRGWEGFAYWGQGTLVTVSA
VL: ELVMTQTPASLAVSLGQRATISCRASENVDKYGNSFMHWYQQKAGQPPKLLIYRASELQWGIPARFSGSGSRTDFTLTINPVEADDVATYFCQRSNEVPWTFGGGTKLEIKR
Regarding B4, the “REL AFFINITY” value was 1.17 with EDIII-DV3 [2], 2.92 with EDIII-DV4 [3] and > 1.23 with EDIII-DV1 [4]. The Kd in the assay with EDIII-DV3 [5] was 20.6 nM; in the assay with EDIII-DV4 [6] it was 43.2 nM; with EDIII-DV1 [7], < 0.3 nM; in the assay with EDIII-DV2 [11] it was < 0.3 nM; with EDIII-DV1 [8], 0.0805 nM; in the assay with EDIII-DV2 [9], 0.202 nM. The values for the Kd with EDIII-DV3 [10] and with EDIII-DV4 [12] were 3.24 nM and 22.1 nM, respectively. Besides, the figures for the off-rate (koff) in the assay with EDIII-DV1 [8], in the assay with EDIII-DV3 [10] and in the assay with EDIII-DV4 [12] were 8.38e-05 s⁻¹, 7.54 s⁻¹ and 0.0406 s⁻¹, respectively. Further, the kon with EDIII-DV1 [8] amounted to 1.04e+06 M⁻¹ s⁻¹; with EDIII-DV2 [9], 2.08e+06 M⁻¹ s⁻¹; with EDIII-DV4 [12], 1.83e+06 M⁻¹ s⁻¹.

B5: VH_G27_del (antibody, V domains shown)
VH: VKLLEQSGAELVKPGASVRLSCTASFNIKDTYMSWVKQRPEQGLEWIGRIDPENGDTKYDPKFQGKATITADTSSNTAYLHLSSLTSGDTAVYYCSRGWEGFAYWGQGTLVTVSA
VL: ELVMTQTPASLAVSLGQRATISCRASENVDKYGNSFMHWYQQKAGQPPKLLIYRASELQWGIPARFSGSGSRTDFTLTINPVEADDVATYFCQRSNEVPWTFGGGTKLEIKR
Consider B5, for which the results for the “REL AFFINITY” value with EDIII-DV3 [2], in the assay with EDIII-DV4 [3] and with EDIII-DV1 [4] were 2.67, 4.78 and > 1.23, respectively. The Kd in the assay with EDIII-DV3 [5] was 9.05 nM; in the assay with EDIII-DV4 [6], 26.4 nM; with EDIII-DV1 [7] it was < 0.3 nM; with EDIII-DV2 [11], < 0.3 nM; with EDIII-DV1 [8], 0.31 nM; with EDIII-DV2 [9], 0.269 nM. Further, the Kd is 2.39 nM in the assay with EDIII-DV3 [10] and 8.04 nM with EDIII-DV4 [12]. In addition, the off-rate constant (koff) with EDIII-DV1 [8] amounted to 0.000471 s⁻¹; with EDIII-DV2 [9] it was 0.000563 s⁻¹; with EDIII-DV3 [10], 0.0483 s⁻¹; with EDIII-DV4 [12], 0.0188 s⁻¹. Besides, the on-rate constant (kon) in the assay with EDIII-DV1 [8] stood at 1.52e+06 M⁻¹ s⁻¹; with EDIII-DV2 [9], 2.09e+06 M⁻¹ s⁻¹; with EDIII-DV3 [10] it was 2.02e+07 M⁻¹ s⁻¹; in the assay with EDIII-DV4 [12], 2.34e+06 M⁻¹ s⁻¹.

B6: VH_G27P single chain Fv on yeast (scFv, V domains shown)
VH: VKLLEQSGAELVKPGASVRLSCTASPFNIKDTYMSWVKQRPEQGLEWIGRIDPENGDTKYDPKFQGKATITADTSSNTAYLHLSSLTSGDTAVYYCSRGWEGFAYWGQGTLVTVSA
VL: ELVMTQTPASLAVSLGQRATISCRASENVDKYGNSFMHWYQQKAGQPPKLLIYRASELQWGIPARFSGSGSRTDFTLTINPVEADDVATYFCQRSNEVPWTFGGGTKLEIKR
Molecule B6 came in with an equilibrium dissociation constant (Kd) with EDIII-DV4 [1] of 53300 nM. This lies in the double-digit micromolar range.

B7: VH_Y106R (antibody, V domains shown)
VH: VKLLEQSGAELVKPGASVRLSCTASGFNIKDTYMSWVKQRPEQGLEWIGRIDPENGDTKYDPKFQGKATITADTSSNTAYLHLSSLTSGDTAVYYCSRGWEGFARWGQGTLVTVSA
VL: ELVMTQTPASLAVSLGQRATISCRASENVDKYGNSFMHWYQQKAGQPPKLLIYRASELQWGIPARFSGSGSRTDFTLTINPVEADDVATYFCQRSNEVPWTFGGGTKLEIK
notes: copies: 2 + 2
As to B7, the “REL AFFINITY” value was 0.72 with EDIII-DV3 [2], 0.46 with EDIII-DV4 [3] and > 1.23 in the assay with EDIII-DV1 [4]. The Kd is 33.4 nM with EDIII-DV3 [5], 272 nM with EDIII-DV4 [6] and < 0.3 nM with EDIII-DV1 [7].

B8: VH_G27A single chain Fv on yeast (scFv, V domains shown)
VH: VKLLEQSGAELVKPGASVRLSCTASAFNIKDTYMSWVKQRPEQGLEWIGRIDPENGDTKYDPKFQGKATITADTSSNTAYLHLSSLTSGDTAVYYCSRGWEGFAYWGQGTLVTVSA
VL: ELVMTQTPASLAVSLGQRATISCRASENVDKYGNSFMHWYQQKAGQPPKLLIYRASELQWGIPARFSGSGSRTDFTLTINPVEADDVATYFCQRSNEVPWTFGGGTKLEIKR
In the assay with EDIII-DV4 [1], B8 showed a dissociation constant (Kd) of 185 nM.

B9: 4E11 VL-E59Q (antibody, V domains shown)
VH: VKLLEQSGAELVKPGASVRLSCTASGFNIKDTYMSWVKQRPEQGLEWIGRIDPANGDTKYDPKFQGKATITADTSSNTAYLHLSSLTSGDTAVYYCSRGWEGFAYWGQGTLVTVSA
VL: ELVMTQTPASLAVSLGQRATISCRASENVDRYGNSFMHWYQQKAGQPPKLLIYRASNLQSGIPARFSGSGSRTDFTLTINPVEADDVATYFCQRSNEVPWTFGGGTKLEIKR
B9: the “ΔΔG (ΔGmutant - ΔGWT)” value with EDIII-DV4 [13] is -0.77 kcal/mol. Besides, the ΔG in the assay with EDIII-DV4 [14] was -6.76 kcal/mol. In the assay with EDIII-DV4 [15], this molecule showed a dissociation constant Kd of 11000 nM.

B10: VH_A25_del (antibody, V domains shown)
VH: VKLLEQSGAELVKPGASVRLSCTSGFNIKDTYMSWVKQRPEQGLEWIGRIDPENGDTKYDPKFQGKATITADTSSNTAYLHLSSLTSGDTAVYYCSRGWEGFAYWGQGTLVTVSA
VL: ELVMTQTPASLAVSLGQRATISCRASENVDKYGNSFMHWYQQKAGQPPKLLIYRASELQWGIPARFSGSGSRTDFTLTINPVEADDVATYFCQRSNEVPWTFGGGTKLEIK
notes: also called 4E5-del-25; copies: 2 + 2
As for B10, the results for the “REL AFFINITY” value with EDIII-DV3 [2], in the assay with EDIII-DV4 [3] and in the assay with EDIII-DV1 [4] were 1.22, 0.54 and 0.29, respectively. The Kd with EDIII-DV3 [5] is 19.8 nM; with EDIII-DV4 [6], 236 nM; with EDIII-DV1 [7] it was 1.27 nM; with EDIII-DV2 [11], < 0.3 nM; in the assay with EDIII-DV1 [8], 1.43 nM; with EDIII-DV3 [10], 5.4 nM. For the same molecule, the Kd in the assay with EDIII-DV4 [12] stood at 25.9 nM. Also, the koff amounted to 0.00133 s⁻¹ with EDIII-DV1 [8], 0.000182 s⁻¹ with EDIII-DV2 [9], 0.0269 s⁻¹ with EDIII-DV3 [10] and 0.13 s⁻¹ with EDIII-DV4 [12]. In addition, the on-rate constant (kon) came out at 933000 M⁻¹ s⁻¹ with EDIII-DV1 [8], 2.74e+06 M⁻¹ s⁻¹ with EDIII-DV2 [9], 4.98e+06 M⁻¹ s⁻¹ with EDIII-DV3 [10] and 4.99e+06 M⁻¹ s⁻¹ with EDIII-DV4 [12].
